Experimental data: article PMC12724168, “Real-time simultaneous monitoring of multiple analytes in bacterial cultures” (Applied and Environmental Microbiology, 2025)

Assays:
[1] = Fluorescence change of LAOBP-22C fluorophore conjugates upon addition of ligand; assay type: binding; conditions: LAOBP-22C mutant conjugates, ligand not given
Text: (§1) Because of this, we decided to design and develop a biosensor for arginine, using the lysine/arginine/ornithine binding protein from Salmonella (LAOBP) ([52]). We carried out cysteine scanning by introducing four individual cysteine mutations at positions near the hinge region. The selection of cysteine positions was guided by the crystal structures of the apo and bound forms of the protein ([53]) (Fig. S1). Each of the four mutants was conjugated to six different fluorophores, and the fluorescence change upon the addition of ligand was characterized for each of the 24 protein-ligand conjugates. […] We determined the dissociation constants for all three ligands (arginine, lysine, and ornithine) using the LAOBP-22C acrylodan conjugate (Fig. 1F) and the coumarin conjugate (Fig. S2). With a large change in fluorescence and a dissociation constant of 1.5 µM for both arginine and lysine, we chose to use the LAOBP-22C acrylodan conjugate for subsequent experiments.
Fluorescence analysis of protein-fluorophore conjugates was carried out on a Jasco FP-8500 fluorometer. UV-clear, four-sided cuvettes containing 200–300 nM labeled protein in working buffer were used. The following parameters were used for each of the fluorophores: Acrylodan (excitation: 359 nm, emission: 440–550 nm), Coumarin (excitation: 390 nm, emission: 430–520 nm), IANBD (excitation: 460 nm, emission: 500–600 nm), Alexa488 (excitation: 490 nm, emission: 500–560 nm), TMR (excitation: 555 nm, emission: 570–620 nm), and Texas Red (excitation: 595 nm, emission: 600–660 nm). Titrations were carried out by adding increasing amounts of ligand while monitoring changes in emission at the maximum wavelength. Fluorescence values were volume adjusted, and Kd values were determined by fitting the titration data using Kaleidagraph according to the following equation: […]

[2] = Fluorescence titration of LAOBP-22C conjugates with arginine; assay type: binding; conditions: LAOBP-22C conjugate, ligand arginine
Text: as §1
(§2) Fluorescence analysis of protein-fluorophore conjugates was carried out on a Jasco FP-8500 fluorometer. […] Fluorescence values were volume adjusted, and Kd values were determined by fitting the titration data using Kaleidagraph according to the following equation: […]
(§3) where F is the observed fluorescence at a given ligand concentration [L], Fo is the fluorescence in the absence of ligand, and Fmax is the fluorescence at saturation.

[3] = Fluorescence titration of LAOBP-22C conjugates with lysine; assay type: binding; conditions: LAOBP-22C conjugate, ligand lysine
Text: as §1, §2, §3

[4] = Fluorescence titration of LAOBP-22C conjugates with ornithine; assay type: binding; conditions: LAOBP-22C conjugate, ligand ornithine
Text: as §1, §2, §3

[5] = test system: cultures of P. aeruginosa, S. aureus, E.coli, E. faecalis, and C. striatum; test: Gel electrophoresis of biosensors after 24 h in bacterial cultures (stability); conditions: 24 hours in culture, LB, supernatants
Experimental: To determine if the observed changes in fluorescence were not simply the result of degradation of the protein sensors over the course of E. coli growth, glucose, individual ligands (arabinose, ribose, glutamate, arginine, or ornithine) were added to 24-hour-old cultures containing each corresponding PBP. Immediately after the addition of the respective analyte, fluorescence was measured again (Fig. 3F).
Figure S3: Gel electrophoresis analysis of the stability of the biosensors after incubation with different bacterial species in culture for 24 hours. Left gel: TnGBP, Right gel: LAOBP. A Bio-Rad gel imager was used to detect the fluorescently labeled biosensor in each sample. In each gel, the lanes are as follows: 1. MW standard, 2. Pure protein, 3. Pure protein in LB with no bacteria, 4 – 8: supernatants after 24 hours of cultures of P. aeruginosa, S. aureus-GBP, E.coli, E. faecalis, and C. striatum.

Molecule | % Change [1] | Kd [2] [µM] | Kd [3] [µM] | Kd [4] [µM] | stability of the biosensor in bacterial culture (gel electrophoresis) [5]
LAOBP-22C Acrylodan (conjugate, UniProt P02911 23-260, looked up, variant A22C, Acrylodan label) Lysine/arginine/ornithine-bind …: ALPQTVRIGTDTTYAPFSSKDCKGEFIGFDIDLGNEMCKRMQVKCTWVASDFDALIPSLKAKKIDAIISSLSITDKRQQEIAFSDKLYAADSRLIAAKGSPIQPTLESLKGKHVGVLQGSTQEAYANDNWRTKGVDVVAYANQDLIYSDLTAGRLDAALQDEVAASEGFLKQPAGKEYAFAGPSVKDKKYFGDGTGVGLRKDDTELKAAFDKALTELRQDGTYDKMAKKYFDFNVYGD | −50% | 1.5 ± 0.1 | 1.5 ± 0.1 | 38.9 ± 1.8 | two bands are visible
LAOBP-22C Alexa488 (conjugate, UniProt P02911 23-260, looked up, variant A22C, Alexa488 label) Lysine/arginine/ornithine-bind …: ALPQTVRIGTDTTYAPFSSKDCKGEFIGFDIDLGNEMCKRMQVKCTWVASDFDALIPSLKAKKIDAIISSLSITDKRQQEIAFSDKLYAADSRLIAAKGSPIQPTLESLKGKHVGVLQGSTQEAYANDNWRTKGVDVVAYANQDLIYSDLTAGRLDAALQDEVAASEGFLKQPAGKEYAFAGPSVKDKKYFGDGTGVGLRKDDTELKAAFDKALTELRQDGTYDKMAKKYFDFNVYGD | +8% |  |  |  | 
LAOBP-22C Texas Red (conjugate, UniProt P02911 23-260, looked up, variant A22C, Texas Red label) Lysine/arginine/ornithine-bind …: ALPQTVRIGTDTTYAPFSSKDCKGEFIGFDIDLGNEMCKRMQVKCTWVASDFDALIPSLKAKKIDAIISSLSITDKRQQEIAFSDKLYAADSRLIAAKGSPIQPTLESLKGKHVGVLQGSTQEAYANDNWRTKGVDVVAYANQDLIYSDLTAGRLDAALQDEVAASEGFLKQPAGKEYAFAGPSVKDKKYFGDGTGVGLRKDDTELKAAFDKALTELRQDGTYDKMAKKYFDFNVYGD | −22% |  |  |  | 
LAOBP-22C TMR (conjugate, UniProt P02911 23-260, looked up, variant A22C, TMR label) Lysine/arginine/ornithine-bind …: ALPQTVRIGTDTTYAPFSSKDCKGEFIGFDIDLGNEMCKRMQVKCTWVASDFDALIPSLKAKKIDAIISSLSITDKRQQEIAFSDKLYAADSRLIAAKGSPIQPTLESLKGKHVGVLQGSTQEAYANDNWRTKGVDVVAYANQDLIYSDLTAGRLDAALQDEVAASEGFLKQPAGKEYAFAGPSVKDKKYFGDGTGVGLRKDDTELKAAFDKALTELRQDGTYDKMAKKYFDFNVYGD | −10% |  |  |  | 
LAOBP-22C IANBD (conjugate, UniProt P02911 23-260, looked up, variant A22C, IANBD label) Lysine/arginine/ornithine-bind …: ALPQTVRIGTDTTYAPFSSKDCKGEFIGFDIDLGNEMCKRMQVKCTWVASDFDALIPSLKAKKIDAIISSLSITDKRQQEIAFSDKLYAADSRLIAAKGSPIQPTLESLKGKHVGVLQGSTQEAYANDNWRTKGVDVVAYANQDLIYSDLTAGRLDAALQDEVAASEGFLKQPAGKEYAFAGPSVKDKKYFGDGTGVGLRKDDTELKAAFDKALTELRQDGTYDKMAKKYFDFNVYGD | -8% |  |  |  | 
